Target: HLA-G1 isoform stably expressed on THP1 cells (human) (UniProt P17693)
Assay: cell-based or functional assay

luciferase activity of THP1-HLA-G1-GFPffluc targets after 24 h coculture (E:T 5:1 and 1:1): > 100000 light units
Substance: full length ILT2 (pNT-110 SFG-ILT2-T2A-ΔCD19) (from UniProt Q8NHL6 24-650) (receptor)
